Reference: PMC4755760, “The acidic domain of the endothelial membrane protein GPIHBP1 stabilizes lipoprotein lipase activity by preventing unfolding of its catalytic domain” (eLife, 2016)
Positions count from the first letter of the chain named. Numbers in names are those of the source. Blank lines part the entries; values can stand above or below the molecule they belong to.

What was measured:
[1] = molecular target: bovine LPL homodimer (LPL2) (bovine) (UniProt P11151)
[2] = molecular target: bovine LPL homodimer (LPL2) (bovine) (UniProt P11151); assay: SPR; Biacore T200, CM4 chip; bovine LPL2 captured on immobilised mAb 5D2, GPIHBP1 as analyte (12.5-200 nM), single-cycle kinetic titration; 20°C; 10 mM HEPES (pH 7.4), 150 mM NaCl, 4 mM CaCl2, 0.05% P20, 0.2 mg/ml BSA; 1:1 model
[3] = molecular target: Alexa-647–labeled GPIHBP1^34–131/R38G (human) (UniProt Q8IV16); assay: MST; Monolith NT.115; 5 nM Alexa-647-labeled GPIHBP1, LPL2 titrated 10 pM to 350 nM; 10 mM HEPES (pH 7.4), 150 mM NaCl, 4 mM CaCl2, 0.05% P20, 1.0 mg/ml BSA; 22°C; 1:1 model
CTD^313–448 of human LPL = molecular target: T1, CTD^313–448 of human LPL (human, UniProt P06858 340-475); assay: SPR; Biacore T200, CM4 chip; LPL CTD captured on immobilised mAb 5D2 (~100–200 RU), GPIHBP1 as analyte 8 nM to 4 µM; 20°C; 10 mM HEPES, 150 mM NaCl, 3 mM EDTA (pH 7.4), 0.05% P20; single- and multi-cycle kinetics, global fit to a 1:1 model; settings: both partners purified
T1 construct: lipoprotein lipase (LPL), human, C-terminal domain, residues 313-448; numbers count on: the mature protein; the printed surface densities (85 RU ~ 5 fmols/mm^2) fit about 17 kDa, that is a CTD without the tag (surmise); also called LPL CTD; C-terminal domain of LPL; source: Drosophila S2 cells, secreted as RS-DIII-ent-CTD, purified (anti-uPAR mAb R24 column)
T1 sequence (looked up): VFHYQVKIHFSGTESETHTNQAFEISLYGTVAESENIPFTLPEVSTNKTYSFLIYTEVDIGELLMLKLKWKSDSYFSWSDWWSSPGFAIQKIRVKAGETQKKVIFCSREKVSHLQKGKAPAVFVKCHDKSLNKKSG

[4] = molecular target: T2, bovine LPL homodimer (LPL2) (bovine, UniProt P11151 29-478); assay: SPR; Biacore T200, CM4 chip; bovine LPL2 captured on immobilised mAb 5D2, GPIHBP1 as analyte (12.5-200 nM), single-cycle kinetic titration; 20°C; 10 mM HEPES (pH 7.4), 150 mM NaCl, 4 mM CaCl2, 0.05% P20, 0.2 mg/ml BSA; 1:1 model; settings: both partners purified
T2 construct: lipoprotein lipase (LPL), bovine, from milk; bovine LPL has two residues more than human LPL (Lys296 human = Lys298 bovine); numbers count on: the mature protein; Fractions with dimeric LPL were used; head-to-tail homodimer; also called lipoprotein lipase; full-length LPL; source: purified from fresh bovine milk (heparin-Sepharose, hydroxyapatite, Superdex HR200 SEC)
T2 sequence (looked up): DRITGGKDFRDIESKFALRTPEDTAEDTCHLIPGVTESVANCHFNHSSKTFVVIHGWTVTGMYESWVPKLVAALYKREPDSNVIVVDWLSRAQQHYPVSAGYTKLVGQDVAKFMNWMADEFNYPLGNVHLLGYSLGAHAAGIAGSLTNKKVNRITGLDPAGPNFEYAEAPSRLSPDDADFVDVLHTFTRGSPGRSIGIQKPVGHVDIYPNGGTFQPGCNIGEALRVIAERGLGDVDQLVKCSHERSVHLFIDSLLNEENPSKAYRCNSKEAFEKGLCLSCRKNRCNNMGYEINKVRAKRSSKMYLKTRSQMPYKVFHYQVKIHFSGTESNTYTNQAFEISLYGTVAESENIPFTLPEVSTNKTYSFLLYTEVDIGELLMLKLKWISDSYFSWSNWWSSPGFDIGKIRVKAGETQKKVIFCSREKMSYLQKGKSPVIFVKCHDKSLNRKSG

[5] = molecular target: T2, bovine LPL homodimer (LPL2); assay: cell-based or functional assay
[6] = molecular target: T2, bovine LPL homodimer (LPL2); assay: MST; Monolith NT.115; 5 nM Alexa-647-labeled GPIHBP1, LPL2 titrated 10 pM to 350 nM; 10 mM HEPES (pH 7.4), 150 mM NaCl, 4 mM CaCl2, 0.05% P20, 1.0 mg/ml BSA; 22°C; 1:1 model; settings: both partners purified

Loss of esterase activity (%) of LPL after 45 min at 25°C, peptide in 5-fold molar excess; relative to LPL without ligand (100%) [1]: 9.8%
Loss of triolein hydrolase activity (%) of LPL after 45 min at 25°C, peptide in 5-fold molar excess; relative to LPL without ligand (100%) [1]: 4.2%
Unfolding of NTD in LPL (%) after 45 min at 25°C, by pulse-labeling HDX-MS, equimolar ligand; relative to LPL without ligand (100%) [1]: 43%
Molecule: GPIHBP1^1–33 (peptide)

Loss of esterase activity (%) of LPL after 45 min at 25°C; relative to LPL without ligand (100%) [1]: 34.7%
Loss of triolein hydrolase activity (%) of LPL after 45 min at 25°C; relative to LPL without ligand (100%) [1]: 51.5%
Unfolding of NTD in LPL (%) after 45 min at 25°C, by pulse-labeling HDX-MS, equimolar ligand; relative to LPL without ligand (100%) [1]: 79.2%
Kd [2]: 91 nM
koff [2]: 0.019 s⁻¹
kon [2]: 190000 M⁻¹ s⁻¹
Molecule: GPIHBP1^34–131/R38G (from UniProt Q8IV16 54-151) (domain or fragment)

Kd [6]: 5.7 nM
B2: Alexa-647–labeled GPIHBP1^1–131/R38G (domain or fragment, human, UniProt Q8IV16 21-151, looked up)
chain: QTQQEEEEEDEDHGPDDYDEEDEDEVEEEETNRLPGGGSRVLLRCYTCKSLPRDERCNLTQNCSHGQTCTTLIAHGNTESGLLTTHSTWCTDSCQPITKTVEGTQVTMTCCQSSLCNVPPWQSSRVQDPTG
modifications: Alexa Flour-647 (NHS ester), average 1.3 flurophore/protein; conditions favor modification of the N-terminal α-amino group
notes: numbers count on: the mature protein; m1 with a fluorophore; source: Drosophila S2 cells, purified, labeled with Alexa Flour-647 NHS ester, desalted (PD-10); not shown: uPAR domain III (DIII), N-terminal, cleaved

Kd (CTD^313–448 of human LPL): 1410 ± 760 nM
koff (CTD^313–448 of human LPL): 0.1 ± 0.01 s⁻¹
kon (CTD^313–448 of human LPL): 100000 M⁻¹ s⁻¹
B5: GPIHBP1^34–131/R38G (domain or fragment, human, UniProt Q8IV16 54-151, looked up)
chain: LPGGGSRVLLRCYTCKSLPRDERCNLTQNCSHGQTCTTLIAHGNTESGLLTTHSTWCTDSCQPITKTVEGTQVTMTCCQSSLCNVPPWQSSRVQDPTG
notes: numbers count on: the mature protein; Monomeric by SEC; also called truncated GPIHBP1 lacking the acidic domain; isolated LU domain; source: Drosophila S2 cells; not shown: uPAR domain III (DIII), N-terminal, cleaved

Further lines, the molecule ahead of its results:

Molecule: bovine LPL homodimer (LPL2) (from UniProt P11151 29-478) (enzyme)
Kd [3]: 147 nM

B1: GPIHBP1^1–131/R38G (domain or fragment, human, UniProt Q8IV16 21-151, looked up)
chain: B2 chain
notes: numbers count on: the mature protein; Monomeric by SEC; Carries a single N-linked glycan; also called soluble human GPIHBP1; not shown: uPAR domain III (DIII), N-terminal, cleaved
Kd (CTD^313–448 of human LPL): 120 ± 40 nM
koff (CTD^313–448 of human LPL): 0.12 ± 0.04 s⁻¹
kon (CTD^313–448 of human LPL): 1.04e+06 M⁻¹ s⁻¹
Kd [4]: 25 ± 7 nM
koff [4]: 0.023 ± 0.006 s⁻¹
kon [4]: 990000 M⁻¹ s⁻¹
Loss of esterase activity (%) of LPL after 45 min at 25°C; relative to LPL without ligand (100%) [5]: 11.4%
Loss of triolein hydrolase activity (%) of LPL after 45 min at 25°C; relative to LPL without ligand (100%) [5]: 28.7%
Unfolding of NTD in LPL (%) after 45 min at 25°C, by pulse-labeling HDX-MS, equimolar ligand; relative to LPL without ligand (100%) [5]: 32.6%

B3: GPIHBP1^1–131/R38G N-gly (domain or fragment, human, UniProt Q8IV16 21-151, looked up)
chain: B2 chain
modifications: the single N-linked glycan removed with N-glycanase
notes: numbers count on: the mature protein; As m1 after removal of the N-glycan; source: Drosophila S2 cells, purified, then incubated overnight at 37°C with N-glycanase under native conditions; not shown: uPAR domain III (DIII), N-terminal, cleaved
Kd (CTD^313–448 of human LPL): 150 nM
koff (CTD^313–448 of human LPL): 0.16 s⁻¹
kon (CTD^313–448 of human LPL): 1.06e+06 M⁻¹ s⁻¹

B4: GPIHBP1^1–131 (domain or fragment, human, UniProt Q8IV16 21-151, looked up)
chain: B2 chain with G38R
notes: numbers count on: the mature protein; not shown: uPAR domain III (DIII), N-terminal, cleaved
Kd (CTD^313–448 of human LPL): 290 ± 130 nM
koff (CTD^313–448 of human LPL): 0.22 ± 0.07 s⁻¹
kon (CTD^313–448 of human LPL): 1.12e+06 M⁻¹ s⁻¹
Kd [4]: 38 ± 29 nM
koff [4]: 0.02 ± 0.007 s⁻¹
kon [4]: 650000 M⁻¹ s⁻¹
